What was measured:
c-Src SH2 = assay: SH2 binding enrichment of the phosphorylated peptide, bacterial display (enrichment ratio); higher = better substrate or ligand; peptides without Tyr show the background
Grb2 SH2 = Grb2 SH2 (UniProt P62993); assay: as above
SHP2-C SH2 = assay: as above
FGFR1 = FGFR1 (UniProt P11362); assay: phosphorylation enrichment, bacterial display (enrichment ratio); higher = better substrate or ligand; peptides without Tyr show the background
EPHB2 = EPHB2 (UniProt P29323); assay: as above
c-Abl (mouse) = assay: as above
MERTK = MERTK (UniProt Q12866); assay: as above
FGFR3 = FGFR3 (UniProt P22607); assay: as above
EPHB1 = EPHB1 (UniProt P54762); assay: as above
Fer (mouse) = assay: as above
Jak2 = Jak2 (UniProt O60674); assay: as above
Hck = Hck (UniProt P08631); assay: as above
c-Src = assay: as above
Fes = Fes (UniProt P07332); assay: as above
AncSZ = assay: as above
Fyn = Fyn (UniProt P06241); assay: as above
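For SH2 binding enrichment of the phosphorylated peptide, bacterial display in this document: peptide library displayed on the E. coli surface as eCPX fusions, selected cells deep-sequenced, score is each peptide's frequency after selection divided by its frequency in the input.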
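For phosphorylation enrichment, bacterial display in this document: 11-residue human phosphosite peptides and single-mutation variants displayed on the E. coli surface, counted by deep sequencing, each peptide's frequency after selection divided by its frequency in the unselected input library; frequency after pTyr selection over input frequency; kinase dosed for 20-30% of maximal phosphorylation in three min.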

Hck, sequence (P08631 whole entry, looked up): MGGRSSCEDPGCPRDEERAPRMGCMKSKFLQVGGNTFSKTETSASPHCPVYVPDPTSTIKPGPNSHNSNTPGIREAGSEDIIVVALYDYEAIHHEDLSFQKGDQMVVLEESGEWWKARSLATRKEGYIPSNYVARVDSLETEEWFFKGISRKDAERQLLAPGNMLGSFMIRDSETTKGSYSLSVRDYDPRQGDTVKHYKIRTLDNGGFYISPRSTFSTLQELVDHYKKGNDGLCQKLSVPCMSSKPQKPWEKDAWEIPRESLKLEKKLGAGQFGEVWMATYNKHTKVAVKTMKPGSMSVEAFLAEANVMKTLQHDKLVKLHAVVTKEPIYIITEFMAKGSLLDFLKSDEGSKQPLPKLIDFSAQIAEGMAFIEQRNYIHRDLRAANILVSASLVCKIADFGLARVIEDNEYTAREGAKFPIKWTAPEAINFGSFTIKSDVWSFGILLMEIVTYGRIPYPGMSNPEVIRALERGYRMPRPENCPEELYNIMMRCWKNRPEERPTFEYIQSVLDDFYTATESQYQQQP
EPHB1, sequence (P54762 whole entry, looked up): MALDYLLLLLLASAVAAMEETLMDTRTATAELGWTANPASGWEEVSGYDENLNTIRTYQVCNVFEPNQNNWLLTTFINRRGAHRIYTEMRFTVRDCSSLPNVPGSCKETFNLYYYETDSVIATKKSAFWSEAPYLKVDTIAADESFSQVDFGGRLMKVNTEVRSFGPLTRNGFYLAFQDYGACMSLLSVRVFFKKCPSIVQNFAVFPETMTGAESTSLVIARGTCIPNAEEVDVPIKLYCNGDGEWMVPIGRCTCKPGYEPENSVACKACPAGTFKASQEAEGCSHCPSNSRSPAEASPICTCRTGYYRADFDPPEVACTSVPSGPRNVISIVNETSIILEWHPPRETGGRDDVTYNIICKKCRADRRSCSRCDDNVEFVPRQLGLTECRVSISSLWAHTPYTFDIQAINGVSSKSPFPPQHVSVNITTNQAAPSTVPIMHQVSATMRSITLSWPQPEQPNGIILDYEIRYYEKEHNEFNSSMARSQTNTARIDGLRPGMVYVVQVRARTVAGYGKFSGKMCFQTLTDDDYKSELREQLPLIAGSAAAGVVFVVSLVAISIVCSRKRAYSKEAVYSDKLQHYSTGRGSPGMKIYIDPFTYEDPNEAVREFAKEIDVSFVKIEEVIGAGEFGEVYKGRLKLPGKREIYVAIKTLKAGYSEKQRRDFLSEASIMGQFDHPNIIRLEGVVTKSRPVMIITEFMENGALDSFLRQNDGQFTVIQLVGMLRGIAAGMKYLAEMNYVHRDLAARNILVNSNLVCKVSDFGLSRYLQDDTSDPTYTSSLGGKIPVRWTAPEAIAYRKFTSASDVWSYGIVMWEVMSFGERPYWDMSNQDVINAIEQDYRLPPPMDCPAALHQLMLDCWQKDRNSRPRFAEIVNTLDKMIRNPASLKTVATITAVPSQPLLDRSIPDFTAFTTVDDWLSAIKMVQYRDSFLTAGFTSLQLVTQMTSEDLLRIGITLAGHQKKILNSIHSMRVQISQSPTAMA
FGFR1, sequence (P11362 whole entry, looked up): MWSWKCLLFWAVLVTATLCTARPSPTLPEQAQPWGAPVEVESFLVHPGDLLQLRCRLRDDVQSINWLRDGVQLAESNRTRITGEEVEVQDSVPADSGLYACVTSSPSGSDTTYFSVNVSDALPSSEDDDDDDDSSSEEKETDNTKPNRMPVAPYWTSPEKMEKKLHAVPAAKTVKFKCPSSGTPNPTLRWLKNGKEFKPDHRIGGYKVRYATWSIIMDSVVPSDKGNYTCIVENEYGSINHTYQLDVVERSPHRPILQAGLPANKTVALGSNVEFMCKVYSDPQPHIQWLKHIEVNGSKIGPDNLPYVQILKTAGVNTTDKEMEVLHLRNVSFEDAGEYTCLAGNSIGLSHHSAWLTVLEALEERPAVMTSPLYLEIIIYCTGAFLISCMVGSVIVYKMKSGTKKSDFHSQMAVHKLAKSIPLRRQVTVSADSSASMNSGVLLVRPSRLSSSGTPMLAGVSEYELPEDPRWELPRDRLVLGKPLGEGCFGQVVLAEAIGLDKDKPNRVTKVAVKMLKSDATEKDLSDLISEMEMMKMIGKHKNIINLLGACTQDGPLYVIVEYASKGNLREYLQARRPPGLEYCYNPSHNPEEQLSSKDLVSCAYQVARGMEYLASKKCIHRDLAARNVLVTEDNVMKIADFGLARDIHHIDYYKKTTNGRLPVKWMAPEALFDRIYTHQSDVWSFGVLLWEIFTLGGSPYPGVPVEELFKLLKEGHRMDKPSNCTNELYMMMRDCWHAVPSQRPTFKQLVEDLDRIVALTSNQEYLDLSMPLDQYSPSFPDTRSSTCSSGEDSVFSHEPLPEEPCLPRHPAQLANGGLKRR
Fyn, sequence (P06241 whole entry, looked up, the tested form may be a part): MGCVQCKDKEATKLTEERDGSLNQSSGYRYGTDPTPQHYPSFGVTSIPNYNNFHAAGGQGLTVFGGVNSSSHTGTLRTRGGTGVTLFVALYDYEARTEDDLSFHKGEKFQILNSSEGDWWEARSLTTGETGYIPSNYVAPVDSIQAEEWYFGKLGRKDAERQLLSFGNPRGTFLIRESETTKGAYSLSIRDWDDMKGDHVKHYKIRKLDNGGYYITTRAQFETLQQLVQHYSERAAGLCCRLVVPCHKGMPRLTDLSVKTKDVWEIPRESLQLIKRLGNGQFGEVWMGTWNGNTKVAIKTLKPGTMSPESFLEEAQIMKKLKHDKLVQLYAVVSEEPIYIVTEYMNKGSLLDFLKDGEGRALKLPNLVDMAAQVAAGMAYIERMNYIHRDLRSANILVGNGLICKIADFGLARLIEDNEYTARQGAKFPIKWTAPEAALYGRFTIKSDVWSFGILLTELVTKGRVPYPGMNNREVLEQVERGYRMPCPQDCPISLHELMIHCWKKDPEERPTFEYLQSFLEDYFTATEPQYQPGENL
FGFR3, sequence (P22607 whole entry, looked up): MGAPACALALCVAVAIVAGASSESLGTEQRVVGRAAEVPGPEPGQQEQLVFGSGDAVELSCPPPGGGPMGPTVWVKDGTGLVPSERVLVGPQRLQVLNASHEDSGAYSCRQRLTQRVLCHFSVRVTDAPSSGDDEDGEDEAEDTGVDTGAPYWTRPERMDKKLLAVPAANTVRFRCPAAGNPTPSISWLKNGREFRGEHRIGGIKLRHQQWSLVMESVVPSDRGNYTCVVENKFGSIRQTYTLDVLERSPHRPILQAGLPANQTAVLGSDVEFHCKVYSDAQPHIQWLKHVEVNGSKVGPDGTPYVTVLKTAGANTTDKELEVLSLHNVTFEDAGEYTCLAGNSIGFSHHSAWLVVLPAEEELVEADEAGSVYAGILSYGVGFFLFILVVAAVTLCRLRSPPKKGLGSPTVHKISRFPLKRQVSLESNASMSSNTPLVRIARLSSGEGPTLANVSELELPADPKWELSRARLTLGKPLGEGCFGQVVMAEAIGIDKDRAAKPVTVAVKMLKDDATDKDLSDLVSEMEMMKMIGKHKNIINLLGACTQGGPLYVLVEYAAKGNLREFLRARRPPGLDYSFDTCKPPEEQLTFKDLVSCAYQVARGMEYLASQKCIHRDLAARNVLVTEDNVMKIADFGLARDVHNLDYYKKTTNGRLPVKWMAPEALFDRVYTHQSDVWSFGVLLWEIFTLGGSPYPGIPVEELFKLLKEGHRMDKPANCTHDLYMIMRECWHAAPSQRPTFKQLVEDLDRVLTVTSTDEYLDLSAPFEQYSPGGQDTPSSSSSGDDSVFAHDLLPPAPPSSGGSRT
Fes, sequence (P07332 whole entry, looked up): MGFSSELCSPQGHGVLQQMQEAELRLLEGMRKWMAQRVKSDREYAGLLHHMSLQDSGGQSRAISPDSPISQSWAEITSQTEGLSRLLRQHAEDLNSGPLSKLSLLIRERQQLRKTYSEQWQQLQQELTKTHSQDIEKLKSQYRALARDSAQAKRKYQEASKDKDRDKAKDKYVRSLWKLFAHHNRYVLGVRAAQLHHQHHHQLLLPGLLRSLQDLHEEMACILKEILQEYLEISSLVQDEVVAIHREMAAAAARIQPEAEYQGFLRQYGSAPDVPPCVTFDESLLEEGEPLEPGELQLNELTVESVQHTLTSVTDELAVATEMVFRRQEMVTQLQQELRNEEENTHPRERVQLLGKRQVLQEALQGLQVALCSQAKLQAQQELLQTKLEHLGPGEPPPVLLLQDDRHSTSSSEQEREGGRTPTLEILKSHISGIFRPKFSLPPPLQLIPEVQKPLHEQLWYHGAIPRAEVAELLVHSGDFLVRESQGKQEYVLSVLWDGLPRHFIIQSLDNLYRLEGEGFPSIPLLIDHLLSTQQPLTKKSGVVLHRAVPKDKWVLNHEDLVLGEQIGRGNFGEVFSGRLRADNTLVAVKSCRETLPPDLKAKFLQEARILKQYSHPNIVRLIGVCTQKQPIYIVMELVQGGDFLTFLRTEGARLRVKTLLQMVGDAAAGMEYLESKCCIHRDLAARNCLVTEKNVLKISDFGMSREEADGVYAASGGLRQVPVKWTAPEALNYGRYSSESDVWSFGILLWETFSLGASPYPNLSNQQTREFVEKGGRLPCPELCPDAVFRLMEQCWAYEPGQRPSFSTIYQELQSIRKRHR
Grb2 SH2, sequence (P62993 whole entry, looked up): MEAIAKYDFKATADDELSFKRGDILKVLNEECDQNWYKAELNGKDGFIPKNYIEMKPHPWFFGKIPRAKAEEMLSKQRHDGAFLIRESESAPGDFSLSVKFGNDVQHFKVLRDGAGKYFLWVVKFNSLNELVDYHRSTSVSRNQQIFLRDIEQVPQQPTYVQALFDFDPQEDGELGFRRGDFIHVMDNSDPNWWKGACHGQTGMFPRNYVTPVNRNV

| Sequence | SH2 binding enrichment (c-Src SH2) | SH2 binding enrichment (Grb2 SH2) | SH2 binding enrichment (SHP2-C SH2) | phosphorylation enrichment (FGFR1) | phosphorylation enrichment (EPHB2) | phosphorylation enrichment (c-Abl (mouse)) | phosphorylation enrichment (MERTK) | phosphorylation enrichment (FGFR3) | phosphorylation enrichment (EPHB1) | phosphorylation enrichment (Fer (mouse)) | phosphorylation enrichment (Jak2) | phosphorylation enrichment (Hck) | phosphorylation enrichment (c-Src) | phosphorylation enrichment (Fes) | phosphorylation enrichment (AncSZ) | phosphorylation enrichment (Fyn) |
| --- | --- | --- | --- | --- | --- | --- | --- | --- | --- | --- | --- | --- | --- | --- | --- | --- |
| VSNFNYFYHRE [KCNA1_Y413] | 0.795 | 1.07 | 1.9 | 1.66 | 0.549 | 0.874 | 0.47 | 1.86 | 0.614 | 0.404 | 0.943 | 0.501 | 0.512 | 0.999 | 1.01 | 0.433 |
| VSTAVYKRFPS [BEST1_Y148] | 0.414 | 0.748 | 0.647 | 0.498 | 0.382 | 0.668 | 0.526 | 0.463 | 0.348 | 0.395 | 0.593 | 0.426 | 0.395 | 0.733 | 0.512 | 0.379 |
| VTGWGYRKLRD [F11_Y521] | 0.505 | 0.798 | 0.472 | 0.392 | 0.517 | 0.477 | 0.51 | 0.419 | 0.364 | 0.385 | 0.655 | 0.42 | 0.479 | 0.703 | 0.792 | 0.463 |
| VTQEPYELYCE [CBL_Y368_Q367P] | 0.695 | 1.01 | 0.861 | 0.554 | 0.621 | 0.74 | 0.461 | 0.794 | 0.763 | 0.86 | 0.999 | 0.717 | 1.24 | 1.13 | 1.65 | 0.761 |
| VTQEQYELHCE [CBL_Y368_Y371H] | 0.571 | 0.656 | 0.48 | 0.542 | 0.601 | 0.791 | 0.37 | 0.874 | 0.708 | 0.736 | 1.1 | 0.479 | 0.52 | 1.35 | 1.2 | 0.576 |
| VTVLDYEKIGK [SYT1_Y365_D366E] | 0.89 | 0.662 | 0.649 | 0.456 | 0.524 | 0.54 | 0.393 | 0.561 | 1.07 | 0.412 | 0.77 | 0.573 | 0.355 | 0.868 | 0.783 | 0.479 |
| VVAHHYSFAPD [TNS3_Y601_Q600H] | 2.22 | 0.781 | 1.43 | 0.683 | 0.502 | 0.583 | 0.593 | 0.674 | 0.426 | 0.499 | 0.707 | 0.453 | 0.643 | 0.882 | 0.646 | 0.532 |
| VVQGIYGFHHF [UFSP2_Y285_YF] | 0.83 | 1.03 | 0.923 | 0.693 | 5.04 | 5.3 | 9.74 | 0.502 | 1.75 | 16.3 | 0.846 | 8.93 | 7.39 | 1.62 | 0.886 | 10.1 |
| VVQGIYGFHHH [UFSP2_Y285_Y290H_YF] | 0.588 | 1.06 | 0.757 | 0.523 | 1.19 | 2.36 | 9.65 | 0.496 | 0.65 | 11.7 | 0.538 | 10.8 | 9.09 | 0.776 | 0.685 | 11.7 |
| WASQRYGRELR [BAD_Y110_A107S] | 0.324 | 0.861 | 0.504 | 0.39 | 0.538 | 0.728 | 0.516 | 0.414 | 0.484 | 0.332 | 0.644 | 0.4 | 0.501 | 0.84 | 0.621 | 0.624 |
| WIGRKYKKVRF [F8_Y442_R437W] | 0.388 | 1.28 | 0.456 | 0.506 | 0.518 | 0.676 | 0.527 | 0.54 | 0.547 | 0.492 | 0.571 | 0.546 | 0.619 | 0.611 | 0.567 | 0.552 |
| WNDLDYMDSRR [GAA_Y407] | 0.553 | 0.936 | 0.622 | 0.59 | 0.532 | 0.864 | 0.371 | 0.674 | 0.698 | 0.427 | 1.4 | 0.471 | 0.646 | 1.26 | 1.34 | 0.451 |
| WQQQSYLDLGI [CTNNB1_Y30_S33L] | 0.607 | 1.03 | 0.766 | 1.76 | 0.593 | 0.685 | 0.511 | 1.36 | 0.719 | 0.515 | 1.35 | 0.478 | 0.517 | 0.918 | 0.831 | 0.545 |
| WQQQSYLDSGI [CTNNB1_Y30] | 0.571 | 0.726 | 0.649 | 0.479 | 0.433 | 0.568 | 0.418 | 0.597 | 0.489 | 0.428 | 0.758 | 0.407 | 0.38 | 0.847 | 0.75 | 0.388 |
| YCRHNYGVGES [HLA-DRB1_Y112_V115G] | 0.823 | 0.936 | 0.838 | 0.549 | 0.473 | 0.602 | 0.582 | 0.534 | 0.492 | 0.361 | 0.65 | 0.383 | 0.552 | 0.913 | 0.686 | 0.487 |
| YGLPRYRWLTH [TSPAN12_Y143] | 0.404 | 0.797 | 0.723 | 0.572 | 0.628 | 0.512 | 0.492 | 0.475 | 0.5 | 0.411 | 0.659 | 0.543 | 0.387 | 0.765 | 0.841 | 0.492 |
